Consider two molecules from patent publication US9631002B2, “Methods and compositions for producing active vitamin K-dependent proteins” (The University of North Carolina at Chapel Hill, priority 2010, dated 2017).

The test system of data set [1] is carboxylation of FIXgla-PC reporter protein in HEK293 cells (reduction of KO to vitamin K). The data set is described as follows: Cell-based VKOR activity assay: recombinant VKOR/VKORH expressed in FIXgla-PC/HEK293 cells with KO and warfarin, carboxylated reporter by ELISA. Also noted: species or system human. A general note: An ELISA detects its analyte on a solid surface through an enzyme-linked reagent.

Data set [2] deals with carboxylation of FIXgla-PC reporter protein in AV12 cells (reduction of vitamin K to KH2). The data set is described as follows: Cell-based VKOR activity assay in FIXgla-PC/AV12 or FIXgla-PC/VKOR-Y139F/AV12 cells, carboxylated reporter by ELISA. Also noted: species or system Syrian golden hamster.

B1: hVKOR M. tuberculosis: human VKOR with residues 122-139 replaced by M. tuberculosis VKOR 129-146, SEQ ID NO:29 (protein)
chain: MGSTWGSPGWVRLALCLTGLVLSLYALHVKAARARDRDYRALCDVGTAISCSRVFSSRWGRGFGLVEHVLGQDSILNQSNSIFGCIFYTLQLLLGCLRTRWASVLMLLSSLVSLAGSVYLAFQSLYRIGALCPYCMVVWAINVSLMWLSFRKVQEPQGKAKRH
modifications: Human VKOR with amino acids 122-139 substituted with amino acids 129-146 of M. tuberculosis VKOR (RefSeq accession no. NP_217484)
Consider B1, for which the “ability of human VKOR with replaced residues 122-139 to use KO to carboxylate the reporter” value in data set [1] (5 μM KO, 2 μM warfarin, 48 h, HEK293 (FIG. 11C)) is “functions as a VKOR”. In addition, the “ability of human VKOR with replaced residues 122-139 to use vitamin K to carboxylate the reporter” value in data set [2] (11 μM K, 2 μM warfarin, 48 h, FIXgla-PC AV-12 (FIG. 11B)) was “can utilize vitamin K to produce carboxylated reporter protein”.

B2: MT-VKORH: Mycobacterium tuberculosis VKOR homologue, NP_217484, SEQ ID NO:18 (protein, listed as Mycobacterium tuberculosis)
chain: MVAARPAERSGDPAAVRVPVPSAWWVLIGGVIGLFASMTLTVEKVRILLDPIYVPSCNVNPIVSCGSVMTTPQASLLGFPNPLLGIAGFTVVVVTGVLAVAKVPLPRWYWIGLAVGILVGVAFVHWLIFQSLYRIGALCPYCMVVWAVIATLLVVVASIVFGPMRENRGSQERVGARLLYQWRWSLATLWFTTVFLLIMVRFWDYSTLI
Regarding B2, the “activity relative to human VKOR-Y139F” value in data set [1] (5 μM KO, 4 μM warfarin, 48 h, luciferase-normalized (FIG. 15B)) is listed as 2.5 fold. The “Relative activity: Human Y139F” value in data set [1] (VKOR of the organism compared to human Y139F VKOR, cell-based carboxylation) is “Yes, greater”. For the same molecule, the “activity relative to human VKOR (Y139F)” value in data set [1] (both human forms carry Y139F, 5 μM KO, 2 μM warfarin) worked out at 2 fold. Besides, the “support of reporter protein carboxylation” value in data set [2] (transient expression in FIXgla-PC/AV12 not stably expressing VKOR-Y139F, KO and warfarin (FIG. 19B)) was “produced significant carboxylated reporter protein”. Also, the “activity in reducing vitamin K to KH2 to support carboxylation” value in data set [2] (transient expression in FIXgla-PC/VKOR-Y139F/AV12, KO and warfarin (FIG. 19A)) is “significant activity”.
